This note sets out measurements from article PMC2926950 (Bioorganic & medicinal chemistry, 2009).

The target of assay [1] is T1, hDMX_(1-200) (human, UniProt O15151 1-200).
T1 sequence (looked up): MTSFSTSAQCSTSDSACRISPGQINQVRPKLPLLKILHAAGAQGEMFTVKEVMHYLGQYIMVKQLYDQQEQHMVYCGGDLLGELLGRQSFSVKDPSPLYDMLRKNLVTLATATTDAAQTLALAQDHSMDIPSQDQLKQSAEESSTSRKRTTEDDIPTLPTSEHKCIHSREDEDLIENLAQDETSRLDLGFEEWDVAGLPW
Description: fluorescence polarisation.

Assay [2] concerns the target T1, hDMX_(1-200). The experiment in a line: fluorescence polarisation. This is another data set of the same source.

Ends that are not written are not given here.

Broadly, the IC50 is the concentration that inhibits the measured activity by half. Turning to MRPFMDYWEGLN [p53 12/1], the IC50 in the assay with hDMX_(1-200) [1] came to 3870 ± 389 nM.

A word on the Kd: it is the equilibrium constant for the complex coming apart. The low end stands for tighter binding, the high end for weaker binding. With SQETFSDLWKLLPENNV (peptide, UniProt P04637 15-31, looked up, also: fluorescent label (flu), position not given here) [p53AD15−31^flu], the affinity in the assay with hDMX_(1-200) [2], expressed as Kd, was 841 ± 28.8 nM.

For MRPFMDYWEGLN (also: fluorescent label (flu), position not given here) [p53 12/1^flu], in the assay with hDMX_(1-200) [2], the affinity, expressed as Kd, was 237 ± 21.5 nM.
